This test concerns cAMP response element (CRE). The test is described as follows: CRE transcriptional reporter, forward transfection, HEK293 cells. In kind it is cell-based, human. On the set-up: Response: scale not given here. Particulars: for baseline: 10 nM FSK; for baseline / RLU (10 μM FSK): 3 h. Here is the method:
HEK293 cells were plated at 15,000 cells/well in six 96-well tissue culture plates. Cells were grown in 100 μL of DMEM+10% FBS+1× non-essential amino acids (NEAA) and incubated overnight at 37° C. The cells were transiently transfected with either 10 ng or 100 ng plasmid DNA/well of pGL4.29 9B8 opt, pGL4.29 9B8 opt-P, or pGL4.29. Plasmid DNA was mixed with 850 μL of OPTI-MEM® (Invitrogen) and 32.4 μL of FUGENE® HD transfection reagent (Promega Corp.) and incubated at room temperature for 10 min. Eight μL of the transfection/reporter DNA mixture was added to the appropriate wells (2 constructs/plate). Cells were incubated for 4 hrs at 37° C. The medium was replaced with OPTI-MEM®+0.5% dialyzed FBS+1×NEAA+1× sodium pyruvate+1× Penn-Strep and incubated overnight at 37° C.
A lytic reagent containing 100 mM MES pH 6.1, 1 mM CDTA, 150 mM KCl, 35 mM thiourea, 2 mM DTT, 0.25% TERGITOL® NP-9 (v/v), 0.025% MAZU® DF 204, and 20 μM PBI-3939 was added to the cells containing pGL4.29 9B8 opt or pGL4.29 9B8 opt-P and allowed to incubated for 10 min at room temperature (100 μL lytic reagent added to 100 μL cells). ONE-GLO™ assay reagent (Promega Corp.) was added to cells containing pGL4.29 and used according to the manufacturer's protocol (100 μL reagent added to 100 μL cells). Luminescence was measured on a GLOMAX® Luminometer.

B1: 9B8 opt: codon optimized version of the 9B8 variant (protein)
chain: MVFTLEDFVGDWRQTAGYNLDQVLEQGGLSSLFQKLGVSVTPIQKIVLSGENGLKIDIHVIIPYEGLSGYQMGQIEKIFKVVYPVDDHHFKVILHYGTLVIDGVTPNMIDYFGRPYEGIAVFDGKKITVTGTLWNGNKIIDERLINPDGSLLFRVTINGVTGWRLCERILA
In the case of B1, where the note is “10 ng DNA for transfection”, the Response stood at 67, the baseline was found to be 192810 and the “RLU (10 μM FSK)” value is 12,926,465 RLU. Further, where the note is “100 ng DNA for transfection”, the Response is given as 34, the baseline is on record as 3,078,418 and the “RLU (10 μM FSK)” value was 104,687,723 RLU.

(Values after patent US8809529B2, “Imidazo[1,2-α]pyrazine derivatives” (Promega Corporation, priority 2010, dated 2014).)
